Kd data for one molecule are collected here from US20220226442A1 (published 2022).

B1: CD25 (receptor)
chain: ELCDDDPPEIPHATFKAMAYKEGTMLNCECKRGFRRIKSGSLYMLCTGNSSHSSWDNQCQCTSSATRNTTKQVTPQPEEQKERKTTEMQSPMQPVDQASLPGHCREPPPWENEATERIYHFVVGQMVYYQCVQGYRALHRGPAESVCKMTHGKTRWTQPQLICTGEMETSQFPGEEKPQASPEGRPESETSCLVTTTDFQIQTEMAATMETSIFTTEYQHHHHHH
Take B1: the Kd with I114W stood at 0.038 nM; with L72I, 0.024 nM; with N71Y, 0.018 nM; in the assay with E68Q, 0.022 nM; with V69A, 0.023 nM; in the assay with M104D, 0.028 nM.
